Where a chain is given by its changes, count along the chain named.
Columns and labels:
Assay in all cases: cell-based or functional assay
[1] = molecular target: T1, factor VIIIa A1/A3C1C2 dimer, Glu272Val (human, UniProt P00451 20-391; P00451 1709-2351)
T1 chain 1: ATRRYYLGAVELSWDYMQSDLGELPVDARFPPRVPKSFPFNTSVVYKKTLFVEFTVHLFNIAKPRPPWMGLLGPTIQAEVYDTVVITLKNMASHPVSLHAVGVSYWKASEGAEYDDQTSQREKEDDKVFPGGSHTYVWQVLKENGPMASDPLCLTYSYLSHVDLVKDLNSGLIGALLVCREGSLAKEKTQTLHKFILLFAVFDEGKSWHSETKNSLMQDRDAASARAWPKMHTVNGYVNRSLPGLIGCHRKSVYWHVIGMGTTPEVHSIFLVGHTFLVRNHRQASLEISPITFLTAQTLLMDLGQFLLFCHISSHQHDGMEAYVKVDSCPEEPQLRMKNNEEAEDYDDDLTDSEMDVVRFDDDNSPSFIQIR
T1 chain 2: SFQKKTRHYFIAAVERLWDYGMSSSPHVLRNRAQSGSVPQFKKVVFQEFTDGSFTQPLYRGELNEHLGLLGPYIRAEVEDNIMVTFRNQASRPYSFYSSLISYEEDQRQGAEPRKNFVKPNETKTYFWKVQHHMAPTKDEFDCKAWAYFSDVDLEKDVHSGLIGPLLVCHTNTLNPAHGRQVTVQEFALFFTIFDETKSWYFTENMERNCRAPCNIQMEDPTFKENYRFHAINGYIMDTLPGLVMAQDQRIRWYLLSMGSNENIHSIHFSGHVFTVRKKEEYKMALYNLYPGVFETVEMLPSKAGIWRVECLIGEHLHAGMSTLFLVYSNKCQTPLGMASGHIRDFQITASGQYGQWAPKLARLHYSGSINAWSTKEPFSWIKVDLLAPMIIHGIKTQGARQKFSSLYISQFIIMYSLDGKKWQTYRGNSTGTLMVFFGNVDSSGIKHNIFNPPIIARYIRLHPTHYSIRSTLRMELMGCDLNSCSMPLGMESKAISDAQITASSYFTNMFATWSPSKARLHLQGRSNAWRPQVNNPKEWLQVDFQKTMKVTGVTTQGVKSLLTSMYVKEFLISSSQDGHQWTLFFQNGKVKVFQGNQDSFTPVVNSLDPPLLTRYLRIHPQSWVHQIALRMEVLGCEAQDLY

[2] = molecular target: T2, factor VIIIa A1/A3C1C2 dimer, Glu1984Ala (human, UniProt P00451 20-391; P00451 1709-2351)
T2 sequence 1: T1 chain 1 with V272E
T2 sequence 2: T1 chain 2 with E295A

[3] = molecular target: T3, factor VIIIa A1/A3C1C2 dimer, wild type (human, UniProt P00451 20-391; P00451 1709-2351)
T3 sequence 1: T1 chain 1 with V272E
T3 sequence 2: T1 chain 2

[4] = molecular target: T4, factor VIIIa A1/A3C1C2 dimer, Glu272Ala (human, UniProt P00451 20-391; P00451 1709-2351)
T4 chain 1: T1 chain 1 with V272A
T4 chain 2: T1 chain 2

B1: factor VIIIa A2 subunit, wild type (other)
chain: SVAKKHPKTWVHYIAAEEEDWDYAPLVLAPDDRSYKSQYLNNGPQRIGRKYKKVRFMAYTDETFKTREAIQHESGILGPLLYGEVGDTLLIIFKNQASRPYNIYPHGITDVRPLYSRRLPKGVKHLKDFPILPGEIFKYKWTVTVEDGPTKSDPRCLTRYYSSFVNMERDLASGLIGPLLICYKESVDQRGNQIMSDKRNVILFSVFDENRSWYLTENIQRFLPNPAGVQLEDPEFQASNIMHSINGYVFDSLQLSVCLHEVAYWYILSIGAQTDFLSVFFSGYTFKHKMVYEDTLTLFPFSGETVFMSMENPGLWILGCHNSDFRNRGMTALLKVSSCDKNTGDYYEDSYEDISAYLLSKNNAIEPR
B1 was tested. Which “Factor VIIIa Decay relative to the WT value, Factor IXa absent” value [1] did it give?
Its value is 2.72 relative to WT.

What about the “Factor VIIIa Decay relative to the WT value, Factor IXa present” value [1] of the same binder?
Its value is 1.03 relative to WT.

And the “Factor VIIIa Decay, Factor IXa absent” value [1]?
Its value is 0.227 min⁻¹.

What about the “Factor VIIIa Decay, Factor IXa present” value [1] of the same binder?
The value was 0.0159 min⁻¹.

And the “Factor VIIIa Decay relative to the WT value, Factor IXa absent” value [2]?
The value was 0.29 relative to WT.

And the “Factor VIIIa Decay relative to the WT value, Factor IXa present” value [2]?
Its value is 0.18 relative to WT.

And the “Factor VIIIa Decay, Factor IXa absent” value [2]?
Its value is 0.0241 min⁻¹.

And the “Factor VIIIa Decay, Factor IXa present” value [2]?
Its value is 0.0027 min⁻¹.

And the “Factor VIIIa Decay relative to the WT value, Factor IXa absent” value [3]?
The value was 1 relative to WT.

And the “Factor VIIIa Decay relative to the WT value, Factor IXa present” value [3]?
Its value is 1 relative to WT.

What about the “Factor VIIIa Decay, Factor IXa absent” value [3] of the same binder?
Its value is 0.0836 min⁻¹.

What about the “Factor VIIIa Decay, Factor IXa present” value [3] of the same binder?
Its value is 0.0154 min⁻¹.

What about the “Factor VIIIa Decay relative to the WT value, Factor IXa absent” value [4] of the same binder?
Its value is 1.95 relative to WT.

What about the “Factor VIIIa Decay relative to the WT value, Factor IXa present” value [4] of the same binder?
The value was 1.06 relative to WT.

What about the “Factor VIIIa Decay, Factor IXa absent” value [4] of the same binder?
Its value is 0.164 min⁻¹.

What about the “Factor VIIIa Decay, Factor IXa present” value [4] of the same binder?
Its value is 0.0163 min⁻¹.

— patent US20090118184A1 (UNIVERSITY OF ROCHESTER, published 2009)
